Residue numbers refer to the chain shown, from its start.
B1: SCT-Fa138 (antibody, V domains shown)
VH: QVQLQQPGAELVRPGTSVKLSCKASGYTFTRYWMHWVRQRPGQGLEWIGVIDPSSSSTDYNQKFKGKATLTVDTSSSTAYMQLSSLTSEDSAVYYCARNDYDGGYFDYWGQGTTLTVSS
VL: DVVMTQSPLSLPVSLGDQASISCRSSQSLVHSNGITYLHWYLQKPGQSPNLLIYKVSNRFSGVPDRFSGSGSGTDFTLKISRVEAEDLGVYFCSQTTHVPWTFGGGTKLEIK
notes: murine IgG
B2: SCT-Fa142 (antibody, V domains shown)
VH: B1 VH with K19R, T28S, R31I, R38K, S55T, S57N, S84R, T87S
VL: B1 VL with S7T, S28R, I35N, P45T, N50K, T96S
notes: murine IgG
B3: SCT-Fa151 (antibody, V domains shown)
VH: QVQLQQPGSELVRPGTSVKLSCKASGYTFTSYWMHWVKQRPGQGLEWIGVIDPSDNNTHYNQKFTGKATLTVDTSSSTAYMHLSSLTSEDSAVFYCARNDYDGGYFDFWGQGTTLTVSS
VL: B1 VL with S7T, Q18H, I35H, N50K, Y54D, T96S
notes: murine IgG
B4: SCT-Fa143 (antibody, V domains shown)
VH: B1 VH with P14S, T30I, R31S, R38K, S55D, S56T, S57N, D59N, K65R, Y95F
VL: B1 VL with S7T, V13G, I35N, P45S, N50K, V90L
notes: murine IgG
B5: SCT-Fa141 (antibody, V domains shown)
VH: B1 VH with K19N, R31S, R38K, I48L, S55D, S57N, D59N, A97S
VL: B1 VL with S7T, I35N, N50K, K55T, V90I, T96S
notes: murine IgG
B6: SCT-Fa144 (antibody, V domains shown)
VH: QVQLQQPGAELVTPGASVKLSCKASGYTFTTYWMHWVKQRPGQGLEWIGEIDPSDSYRNYNQKFKGKATLTVDKSSSTAYMQLSSLTSEDSAVYYCARNYGSNYVGYFDYWGQGTALTVSS
VL: DIQMTQTTSSLSASLGDRVTISCRASQDITNYLNWYQQRPDGTVKLLIYYTSRLHSGVPSRFSGSGSGTDYSLTISNLAQGDIATYFCQQASTLPWTFGGGTKLDIK
notes: murine IgG
B7: SCT-Fa158 (antibody, V domains shown)
VH: QVQLQQPGTELVKPGASVKVSCKASGYTFISYWMHWVKQRPGQGLEWIGNIDPNSGTTNYNEKFKTKATLTVDKSSSTAYMQLSSLTSEDSAVYYCARWGWDGFAYWGQGTLVTVSA
VL: DAVMTQTPLSLPVSLGDQASISCRSSQSLENSNGNTYLNWYLQKPGQSPQLLIYRVSTRFSGVLDRFSGSGSGTDFTLKISRVEAEDLGVYFCLQVTHVPYTFGGGTKLEIK
notes: murine IgG
B8: SCT-Fa161 (antibody, V domains shown)
VH: B7 VH with S55Y, T57G, T58P
VL: QIVLTQSPALMSASPGEKVTMTCSASSSVSYMYWYQQKPRSSPKPWIYLTSNLASGVPARFSGSGSGTSYSLTISSMEAEDAATYYCQQWSSNPFTFGSGTKLEIK
notes: murine IgG
B9: SCT-Fa163 (antibody, V domains shown)
VH: B7 VH with S55Y, T57G, T58S, T66S
VL: DIQMTQSPSSLSASLGERVSLTCRASQDIGSSLNWLQQEPDGTIKRLIYATSSLDSGVPKRFSGSRSGSDYSLTISSLESEDFVDYYCLQYASSPFTFGSGTKLEIK
notes: murine IgG
B10: SCT-Fa160 (antibody, V domains shown)
VH: B7 VH with S55Y, T57G, T58P
VL: B7 VL with T58N, V96L
notes: murine IgG
B11: SCT-Fa166 (antibody, V domains shown)
VH: B7 VH with I30V, S55N, T57G, T58S, K63R, K65R, T87A
VL: B7 VL with V96L
notes: murine IgG
B12: SCT-Fa156 (antibody, V domains shown)
VH: B7 VH with T57G, T66S, T69I, A97T
VL: B7 VL with A19V, V56I
notes: murine IgG
B13: SCT-Fa159 (antibody, V domains shown)
VH: B7 VH with S55Y, T57G, T58P
VL: B7 VL with T58N, V96I
notes: murine IgG
B14: SCT-Fa157 (antibody, V domains shown)
VH: B7 VH with T57I, T66S, T69I
VL: B7 VL with A2V, V56I
notes: murine IgG
B15: SCT-Fa154 (antibody, V domains shown)
VH: B7 VH with T57G, N59K, T66S, T69I, A97T
VL: B7 VL with A19V, V56I
notes: murine IgG
B16: SCT-Fa153 (antibody, V domains shown)
VH: B7 VH with E46D, S55N, T57G, T66S
VL: B7 VL with N33Y
notes: murine IgG
B17: SCT-Fa152 (antibody, V domains shown)
VH: B7 VH with W33C, E46D, S55N, T57G, T58P
VL: B7 VL with T58N
notes: murine IgG
B18: SCT-Fa155 (antibody, V domains shown)
VH: B7 VH with T57G, T66S, T69I, Y95F
VL: B7 VL with A2V, V56I
notes: murine IgG
B19: SCT-Fa165 (antibody, V domains shown)
VH: B7 VH with I30V, M34I, S55N, T57G, T58S, K63R, K65R, T87A
VL: B7 VL with V96L
notes: murine IgG
B20: SCT-Fa164 (antibody, V domains shown)
VH: B7 VH with D52N, S55N, T57G, T66S
VL: B7 VL
notes: murine IgG
B21: SCT-Fa168 (antibody, V domains shown)
VH: B7 VH with A24T
VL: B7 VL
notes: murine IgG
B22: SCT-Fa082 (antibody, V domains shown)
VH: QGQLQQPGAEVVKPGAAVKLSCKASGYTFTSYWMQWIKQRPGQGLEWIGEIDPSDNYTDYNQNFKGKATLTVDTSSSTAYLQLSSLTSEDSAVYYCAREGAFSSPFAYWGPGTLVTVSS
VL: DILMTQSPSSMSVSLGDTVSIICHASQDIRSNIGWLQQKPGKSFKGLIYHGTNLEDGVPSRFSGSGSGADYSLTISSLESEDFADYYCVQYVQFPRTFGGGTKLEIK
notes: murine IgG
B23: SCT-Fa148 (antibody, V domains shown)
VH: B22 VH with G2V, A17S, I37V, L81M, R98K, F102Y, S119A
VL: B22 VL with S20T, Q37R, K42T
notes: murine IgG
B24: SCT-Fa078 (antibody, V domains shown)
VH: B22 VH with E46D, S77N
VL: B22 VL
notes: murine IgG
B25: SCT-Fa080 (antibody, V domains shown)
VH: B22 VH with N63H
VL: B22 VL
notes: murine IgG
B26: SCT-Fa081 (antibody, V domains shown)
VH: B22 VH with R98K
VL: B22 VL
notes: murine IgG

Each binder was assayed against T1, Human TIM-3 Human Fc tagged protein (human, fluorescently labeled with HiLyte Fluor 555 (sites not given)) (assay: capture slide probed with labeled TIM-3-Fc;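 note: IgG from single CD138-enriched plasma cells, isolated from lymphocytes, immobilized on a derivatized glass slide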).
T1 construct: Bought construct; also called TIM-3 protein tagged with human Fc; ACROBiosystems catalog no: TM3-H5258

Question: Does B1 bind?
Answer: Result: binds

Question: Does B2 bind?
Answer: Result: binds

Question: Does B3 bind?
Answer: Result: binds

Question: Does B4 bind?
Answer: Result: binds

Question: Does B5 bind?
Answer: Result: binds

Question: Does B6 bind?
Answer: Result: binds

Question: Does B7 bind?
Answer: Result: binds

Question: Does B8 bind?
Answer: Result: binds

Question: Does B9 bind?
Answer: Result: binds

Question: Does B10 bind?
Answer: Result: binds

Question: Does B11 bind?
Answer: Result: binds

Question: Does B12 bind?
Answer: Result: binds

Question: Does B13 bind?
Answer: Result: binds

Question: Does B14 bind?
Answer: Result: binds

Question: Does B15 bind?
Answer: Result: binds

Question: Does B16 bind?
Answer: Result: binds

Question: Does B17 bind?
Answer: Result: binds

Question: Does B18 bind?
Answer: Result: binds

Question: Does B19 bind?
Answer: Result: binds

Question: Does B20 bind?
Answer: Result: binds

Question: Does B21 bind?
Answer: Result: binds

Question: Does B22 bind?
Answer: Result: binds

Question: Does B23 bind?
Answer: Result: binds

Question: Does B24 bind?
Answer: Result: binds

Question: Does B25 bind?
Answer: Result: binds

Question: Does B26 bind?
Answer: Result: binds

Reference: patent publication US20230279105A1 (SINGLE CELL TECHNOLOGY, published 2023)
